Laboratory results published in the supplement of paper PMC9170038.

Legend:
[1] = tested on: MS2 coat protein; experiment: apparent KD of MS2 coat protein, switch OFF state (with FMN for OFF switches, without FMN for ON switches); designed switch direction (-1 OFF switch, 1 ON switch): -1; higher = weaker reporter binding; settings: FMN input: 0 or 200 uM; Eterna round: R93 (includes R88 designs)
How it was run: (§1)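 Titration buffer: 100 mM Tris-HCl pH 7.5, 80 mM KCl, 4 mM MgCl2, without or with constant ligand. Designed RNA switches transcribed on-chip from Illumina sequencing clusters received SNAP-549-labelled MS2 coat protein in twofold steps from 0.7 or 1.5 nM to 3 µM. Apparent KD is the median per design of fits to normalised cluster binding curves.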

[2] = tested on: MS2 coat protein; experiment: apparent KD of MS2 coat protein, switch ON state; designed switch direction (-1 OFF switch, 1 ON switch): -1; higher = weaker reporter binding; settings: FMN input: 0 or 200 uM; Eterna round: R93 (includes R88 designs)
How it was run: as §1

Sequence | apparent KD of MS2 coat protein [1] [nM] | apparent KD of MS2 coat protein [2] [nM]
AAAAAUCGAGGAUAUACAUGAGGAUCACCCAUGUUAGAAAAUGAUUACACAAAAGAAAGUAGAAGGCGAUAAAA [Ex 3 May 20] | 23.4 | 27.9
AAUAAACAUGAGGAUCACCCAUGUGAGGAUAUGGUAUUAUUAGGACAGUAAUGAUAUACCAGAAGGCACAAAUA [JR_Exc001_Sub1104] | 53.5 | 36.9
AAAAAGUGAGGAUAUACGUUGAAAAAAAAAAAAAAAAAGGCGUAGAAGGCACAUGAGGAUCACCCAUGUAAAAA [Ex4 Malc#5] | 77.4 | 56
AAAAGACAUGAGGAUCACCCAUGUCAGGAUAUGACUUGAAAAAAAAAAAAAAAACAUGUCAGAAGGGACAUGAA [Design 45: Sub-opt D] | 19.6 | 20.6
GAAAAGUCAGGAUAUAUGCGAAAAAUAAAAAAAAUAAAAACAUAGAAGGGACAUGAGGAUCACCCAUGUUAAAA [Mat - Exclusion 4 - Mayanna - D134] | 29.7 | 41.6
UAUACGUGAGGAUAUGCGAAUACCACGUAAGACAUACAGACGCAGAAGGCACAUGAGGAUCACCCAUGUGAACC [JR_Exc004_Sub314] | 16.3 | 19.2
AAGGAUAGAGGAUAUACAUAGAUACAGAUUCAUGUAGAACUACAUGAGGAUCACCCAUGUAGAAGGCUAUCAUA [AJ 32] | 89.1 | 27.9
AAAAAGUCAGGAUAUGUAGCAAAAGGUGAUCAAAAAAAGCUACAGAAGGGACAUGAGGAUCACCCAUGUAAAAA [Ex4: 937] | 156 | 139
AAAAAGCGAGGAUAUACGAGUCAAAGAAAAGACAAGGAGAAACAUGAGGAUCACCCAUGUAGAAGGCGCAAAAA [Fiskers exclusion D2] | 25.3 | 21.8
AGUGAGUGAGGAUAUGCUAGAAGAAUAAAAGAAAUAACGUAGCAGAAGGCACAUGAGGAUCACCCAUGUACACA [May 66] | 22.5 | 25.6
AAAUGCUGAGGAUAUACAUGAGGAUCACCCAUGUAAAAUAAAUAAUGAGUGUAAACGUGUAGAAGGCAGCAUAA [Exclusion 3.14c (FMN+ favored )] | 19.5 | 41.1
GUAGUGUGAGGAUAUGGAAAGAAGAAGAAAAGGUAGAAAAACUAGAAGGCACAUGAGGAUCACCCAUGUAAGAA [JR_Exc004_Sub1710] | 20.3 | 29.1
GUGUACAGAGGAUAUACUGGAGCUAGGAAACUAGCAAGAUCACAUGAGGAUCACCCAUGUAGAAGGCUGUACAC [Ex2: 743] | 20.2 | 90.8
AAAAAGUGAGGAUAUGGUAAAAAAAAAAAAAAAAAAAACCUCCAGAAGGCACAUGAGGAUCACCCAUGUAAAAA [Jolly's Folly 2 - Jieux - Exclusion 4] | 34.6 | 75.8
AACUGACAUGAGGAUCACCCAUGUCAGGAUAUGACAUCGAAAAAUAAAUAAAUCGUUGUCAGAAGGGACAUGAA [Design 76: Sub-opt S] | 14.9 | 16.3
GAUCAGCUAGGAUAUACAUUAAUCCGAAAUGAGAAGAAAGAACAUGAGGAUCACCCAUGUAGAAGGAGCCAGUA [Usinisat] | 32.1 | 33.7
AAAGAGUGAGGAUAUUCGGAUAGGAAAACGAAAACCUAUCCGAAGAAGGCACAUGAGGAUCACCCAUGUAAAAA [67% Ecls-II - Early G segment 2] | 39.5 | 37.3
CUCAUGUCAGGAUAUCAGUAGUAAAAAAAAAAAAUUACUACUGAGAAGGGACAUGAGGAUCACCCAUGUACCUU [EX4 302: Super Stable 2] | 29.1 | 25.4
AACUAGUGAGGAUAUACAAGAAAAAAAAAAAAAAUAAAGGGACAUGAGGAUCACCCAUGUAGAAGGCACUAACA [Diamond 69] | 64.9 | 37.7
